Assay results reported in the supplement of paper PMC10567573.

B1: ELF3 (parent)
chain: LSKEYWDCLEGKKSKHAPRGTHLW
B2: PLK2 (parent)
chain: YAELGQCSVFPATDAPEQFISQVT

Variants of: B1
Assay: protein stability index of a GFP-peptide fusion (GPS, HEK-293T) (PSI 1-6); higher = more stable
Conditions: c terminus: a fixed tail appended
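Further: lentivirally expressed fusions sorted by FACS into six bins by GFP to DsRed ratio, PSI derived from sequencing read proportions per bin multiplied by bin number.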

Row | Variant | protein stability index
1 | LSKEYWDCLEGKKSKHAPRGTMLW [H22M] | 2.37
2 | LSKEYWDCLEGKKSKHAPRGLHLW [T21L] | 2.02
3 | LSKEYWDCLEGKKSKHAPRGGHLW [T21G] | 2.54
4 | LSKEYWDCLEGKKSKHAPRGKHLW [T21K] | 3.08
5 | LSKEYWDCLEGKKSKHAPRGCHLW [T21C] | 2.22
6 | LSKEYWDCLEGKKSKHAPRGPHLW [T21P] | 2.57
7 | LSKEYWDCLEGKKSKHAPRGHHLW [T21H] | 2.66
8 | LSKEYWDCLEGKKSKHAPRGFHLW [T21F] | 2.05
9 | LSKEYWDCLEGKKSKHAPRGEHLW [T21E] | 3.37
10 | LSKEYWDCLEGKKSKHAPRGQHLW [T21Q] | 2.78
11 | LSKEYWDCLEGKKSKHAPRGMHLW [T21M] | 2.32
12 | LSKEYWDCLEGKKSKHAPRGSHLW [T21S] | 2.24
13 | LSKEYWDCLEGKKSKHAPRGVHLW [T21V] | 1.8
14 | LSKEYWDCLEGKKSKHAPRGYHLW [T21Y] | 2.37
15 | LSKEYWDCLEGKKSKHAPRGIHLW [T21I] | 2.19
16 | LSKEYWDCLEGKKSKHAPRGAHLW [T21A] | 3.4
17 | LSKEYWDCLEGKKSKHAPRGWHLW [T21W] | 2.04
18 | LSKEYWDCLEGKKSKHAPRGRHLW [T21R] | 2.78
19 | LSKEYWDCLEGKKSKHAPRGNHLW [T21N] | 3.1
20 | LSKEYWDCLEGKKSKHAPRGDHLW [T21D] | 3.45
21 | LSKEYWDCLEGKKSKHAYRGTHLW [P18Y] | 2.73

Variants of: B2
Assay: as above
Conditions: c terminus: a fixed tail appended

Row | Variant | protein stability index
22 | YAELGDCSVFPATDAPEQFISQVT [Q6D] | 3.3
23 | YAELGPCSVFPATDAPEQFISQVT [Q6P] | 2.26
24 | CAELGQCSVFPATDAPEQFISQVT [Y1C] | 3.13
25 | GAELGQCSVFPATDAPEQFISQVT [Y1G] | 4.39
26 | LAELGQCSVFPATDAPEQFISQVT [Y1L] | 3.54
27 | FAELGQCSVFPATDAPEQFISQVT [Y1F] | 2.24
28 | YAELGQCSVFPATDAPEQFISQPT [V23P] | 2.81
29 | YAELGQCSVFPATDAPEQFISQET [V23E] | 2.75
30 | YAELGQCSVFPATDAPEVFISQVT [Q18V] | 2.49
31 | YAELGQCSVFPATDAPESFISQVT [Q18S] | 2.29
32 | YAELGQCSVFPATDAPEHFISQVT [Q18H] | 2.19
33 | YAELGQCSVFPATDAPEGFISQVT [Q18G] | 2.82
34 | YAELGQCSVFPATDIPEQFISQVT [A15I] | 1.96
35 | YAELGQCSVFPATDEPEQFISQVT [A15E] | 2.6
36 | YAELGQCSVFPATDVPEQFISQVT [A15V] | 2.22
37 | YAELGQCSVFPATDSPEQFISQVT [A15S] | 1.83
38 | YAELGQCSVFDATDAPEQFISQVT [P11D] | 1.64
39 | YAELGQCSVFNATDAPEQFISQVT [P11N] | 2.2
40 | YAELGQCSVFSATDAPEQFISQVT [P11S] | 2.56
41 | YAELGQCSVFPATDAPNQFISQVT [E17N] | 1.95
42 | YAELGQCSVFPATDAPSQFISQVT [E17S] | 2.06
43 | YAELGQCSVFPAWDAPEQFISQVT [T13W] | 1.89
44 | YAELGQCSVFPAMDAPEQFISQVT [T13M] | 2.11
45 | YAELGQCNVFPATDAPEQFISQVT [S8N] | 2.57
46 | YMELGQCSVFPATDAPEQFISQVT [A2M] | 2.46

Row | Variant | protein stability index
47 | YDELGQCSVFPATDAPEQFISQVT [A2D] | 4.09
48 | YAELWQCSVFPATDAPEQFISQVT [G5W] | 3.46
49 | YAELLQCSVFPATDAPEQFISQVT [G5L] | 1.57
50 | YAELMQCSVFPATDAPEQFISQVT [G5M] | 1.98
51 | YAELGQCSVFPATDAPEQFNSQVT [I20N] | 2.65
52 | YAELGQCSVFPATDAPEQFSSQVT [I20S] | 3.25
53 | YAELGQCSVFPATDAPEQFGSQVT [I20G] | 2.69
54 | YAELGQCSVFPATDAPEQFQSQVT [I20Q] | 2.31
55 | YAELGQCSVFPATHAPEQFISQVT [D14H] | 1.97
56 | YAELGQCSVFPATRAPEQFISQVT [D14R] | 1.7
57 | YAELGQFSVFPATDAPEQFISQVT [C7F] | 1.78
58 | YAELGQRSVFPATDAPEQFISQVT [C7R] | 2.57
59 | YAELGQDSVFPATDAPEQFISQVT [C7D] | 3.04
60 | YAELGQLSVFPATDAPEQFISQVT [C7L] | 1.69
61 | YAELGQSSVFPATDAPEQFISQVT [C7S] | 1.87
62 | YAELGQHSVFPATDAPEQFISQVT [C7H] | 1.91
63 | YAELGQPSVFPATDAPEQFISQVT [C7P] | 3.45
64 | YAELGQCSVFPATDAREQFISQVT [P16R] | 1.84
65 | YAELGQCSVFPATDACEQFISQVT [P16C] | 2.04
66 | YAELGQCSVFPATDAVEQFISQVT [P16V] | 1.66
67 | YAELGQCSVFPATDAMEQFISQVT [P16M] | 1.91
68 | YAELGQCSVFPITDAPEQFISQVT [A12I] | 2.07
69 | YAELGQCSVFPKTDAPEQFISQVT [A12K] | 2.13
70 | YAELGQCSVFPLTDAPEQFISQVT [A12L] | 1.66
71 | YAELGQCSVFPATDAPEQFISEVT [Q22E] | 3.2

Row | Variant | protein stability index
72 | YAELGQCSVFPATDAPEQFISIVT [Q22I] | 1.52
73 | YASLGQCSVFPATDAPEQFISQVT [E3S] | 1.82
74 | YAHLGQCSVFPATDAPEQFISQVT [E3H] | 1.93
75 | YAWLGQCSVFPATDAPEQFISQVT [E3W] | 1.66
76 | YALLGQCSVFPATDAPEQFISQVT [E3L] | 1.43
77 | YAELGQCSQFPATDAPEQFISQVT [V9Q] | 2.71
78 | YAELGQCSLFPATDAPEQFISQVT [V9L] | 1.98
79 | YAELGQCSVDPATDAPEQFISQVT [F10D] | 4.2
80 | YAELGQCSVGPATDAPEQFISQVT [F10G] | 3.27
81 | YAELGQCSVRPATDAPEQFISQVT [F10R] | 3.18
82 | YAENGQCSVFPATDAPEQFISQVT [L4N] | 3.09
83 | YAEEGQCSVFPATDAPEQFISQVT [L4E] | 4.42
84 | YAEHGQCSVFPATDAPEQFISQVT [L4H] | 3.25
85 | YAELGQCSVFPATDAPEQFISQVN [T24N] | 2.92
86 | YAELGQCSVFPATDAPEQNISQVT [F19N] | 2.92
87 | YAELGQCSVFPATDAPEQLISQVT [F19L] | 2.36
88 | YAELGQCSVFPATDAPEQYISQVT [F19Y] | 1.94
89 | YAELGQCSVFPATDAPEQVISQVT [F19V] | 2.28
90 | YAELGQCSVFPATDAPEQKISQVT [F19K] | 2.97
91 | YAELGQCSVFPATDAPEQFIAQVT [S21A] | 1.64
92 | YAELGQCSVFPATDAPEQFIMQVT [S21M] | 3.09
93 | YAELGQCSVFPATDAPEQFITQVT [S21T] | 2.49
94 | YAELGQCSVFPATDAPEQFIIQVT [S21I] | 2.64
